The text below walks through data of FireProtDB (doi:10.1002/pro.398).

For this data set the following is noted: Gallus gallus, Thermal, CD, whole UniProt chain shown.

B1: Ovalbumin wild type, P01012 (protein)
chain: MGSIGAASMEFCFDVFKELKVHHANENIFYCPIAIMSALAMVYLGAKDSTRTQINKVVRFDKLPGFGDSIEAQCGTSVNVHSSLRDILNQITKPNDVYSFSLASRLYAEERYPILPEYLQCVKELYRGGLEPINFQTAADQARELINSWVESQTNGIIRNVLQPSSVDSQTAMVLVNAIVFKGLWEKAFKDEDTQAMPFRVTEQESKPVQMMYQIGLFRVASMASEKMKILELPFASGTMSMLVLLPDEVSGLEQLESIINFEKLTEWTSSNVMEERKIKVYLPRMKMEEKYNLTSVLMAMGITDVFSSSANLSGISSAESLKISQAVHAAHAEINEAGREVVGSAEAGVDAASVSEEFRADHPFLFCIKHIATNAVLFFGRCVSP
One may read the Tm as the temperature at which the thermal transition is half complete. Take B1: the melting temperature (Tm) reads like this: (pH 7, Phosphate 10 mM) 69.8 °C; (pH 10, Glycine-NaOH 0.1 M) 78.9 °C.
